{"source": "patent US20220356235A1", "about": "(STICHTING SANQUIN BLOEDVOORZIENING, published 2022)", "binders": {"B1": {"name": "anti-FH.07 (antibody, V domains shown)", "VH": "QVQLQQSGPGLVQPSQSLSITCTVSDFSLARYGVHWIRQSPGKGLEWLGVIWSGGTADYNAAFISRLNINKDNSKSQVFFKMNSLQANDTAIYYCARNFGNYAVDYWGQGTS", "VL": "QIVLSQSPTFLSASPGEKVTVTCRASSSVKYMHWYQQKPGASPKPWIFATSNLASGVPARFSGSGSGTSYSLTISRVEAEDAATYYCQQWSIIPPTFGNGTKLELK"}, "B2": {"name": "anti-FHR-1.11E1 (antibody, V domains shown)", "VH": "QVQLKQSGPGLVQPSQSLSITCTVSGFSLTNYGVHWVRQPPGKGLEWLGVIWSGGNTDYNAAFISRLSISKDNSKSQVFFKMNSLQADDTAIYYCAKNGDYGYTMDYWGQGTSVTVSS", "VL": "DVVMTQTPLSLPVSLGDQASISCRSSQSLVHSNGNTYLHWYLQKPGQSPKLLIYKLSNRFSGVPDRFSGSGSGTDFTLKISRVEAEDLGVYFCSQSTHVPFTFGSGTKLEIK", "notes": "Mouse monoclonal from a hybridoma, raised against recombinant human FHR-1"}, "B3": {"name": "FHR-1.14C4 (antibody, V domains shown)", "VH": "EVQLQQSGPELEKPGASVKISCKASGYSFTGYNMHWVKQSNGTSLEWIGKIDPYYGDTSYNQRFKGKATLTVDKSSSTAYMQLKSLTSEDSAVYYCARAFYRDYALDYWGRGTSVTVSS", "VL": "DIVMTQSPSSLTVTAGEKVTMSCKSSQSLFNSGNQKNYLTWYQQKPGQPPKLLIYWASTRESGVPDRFTGSGSGTDFTLTISSVQAEDLAVYYCQNDYSYPLTFGAGTKLELK", "notes": "as for B2"}, "B4": {"name": "anti-FHR-1.3B4 (antibody, V domains shown)", "VH": "QVQLRQSGPGLVQPSQSLSITCTVSGFSLTNYGVYWVRQSPGKGLEWLGVIWSGGTTDYSAAFISRLSISKDNSKSQVFFKMNSLQADDTAIYYCARNFGNYAMDYWGQGTSVTVSS", "VL": "QIVLSQSPTILSASPGEKVTMTCRASSSVTYMHWYQQKPGSSPKPWIYATSNLASGVPARFSGSGSGTSYSLTISRVEAEDAATYYCQQRSSSNPLTFGAGTKLELK", "notes": "Mouse monoclonal from a hybridoma, raised against recombinant human FHR-1; also called aFHR-1 3B4"}}, "key": {"[1]": {"biological_target": "T1, human factor H, full length (human, UniProt P08603 19-1231)", "assay": "cell-based or functional assay"}, "[2]": {"biological_target": "T2, recombinant human FH fragment CCP 18-20 (human, UniProt P08603 1046-1231)", "T2 construct": "domain: CCP 18-20; also called fragment of FH comprised of domain 18-20", "T2 sequence (looked up)": "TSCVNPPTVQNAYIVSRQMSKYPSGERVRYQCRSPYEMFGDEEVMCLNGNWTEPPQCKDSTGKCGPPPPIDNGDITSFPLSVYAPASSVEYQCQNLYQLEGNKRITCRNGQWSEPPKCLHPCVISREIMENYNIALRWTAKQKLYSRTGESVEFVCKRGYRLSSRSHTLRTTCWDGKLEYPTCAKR", "assay": "SPR (Biacore T200), mAb captured on ProtA or ProtG chip, FH CCP18-20 flowed over, 1:1 model", "protocol": "(§1) Surface plasmon resonance (SPR) experiments were performed using a BiaCore T200 (GE Healthcare) and CM5 sensor chips (GE Healthcare) in accordance with the manufacturer's instructions. In short, to determine its affinity, anti-FH.07, anti-FHR-1 3B4 or anti-FHR-1 8E4 were captured onto a ProtA or ProtG coupled chip and either full length FH or a fragment of FH comprising domain 18-20 was flown over the captured moAB at decreasing concentrations."}, "[3]": {"biological_target": "T1, human factor H, full length", "assay": "SPR (Biacore T200), mAb captured on ProtA or ProtG chip, full length FH flowed over, 1:1 model", "protocol": "as §1"}, "[4]": {"biological_target": "T3, recombinant human FH fragment CCP 19-20 (human, UniProt P08603 1107-1231)", "T3 construct": "domain: CCP 19-20", "T3 sequence (looked up)": "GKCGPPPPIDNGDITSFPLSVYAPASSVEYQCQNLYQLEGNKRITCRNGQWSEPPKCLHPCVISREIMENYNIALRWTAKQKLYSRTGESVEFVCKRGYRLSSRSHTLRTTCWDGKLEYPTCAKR", "assay": "competition ELISA: mAb captured on RM-19 coated plate, FH-bt mixed with unlabelled CCP 19-20", "protocol": "(§2) The location of the epitope of anti-FHR-1 mAbs was determined using recombinant human FH fragments composed of multiple CCP domains (15-18, 15-19, 18-20 or 19-20). In short, anti-FHR-1 mAbs were captured on a RM-19 coated microtiterplate to assure optimal binding conformation. Next, biotinylated FH, mixed with a 100-fold higher concentration of the indicated unlabeled recombinant FH-fragments, was incubated on the plate for 1 hour. Binding of biotinylated FH was determined by incubation with 0.01% (v/v) streptavidin conjugated with poly-HRP, in HPE for 30 min. The ELISA was further developed as described above. To determine whether the anti-FHR-1 mAbs competed with anti-FH.07 for the binding of FH, a similar set-up was used. In short, mAbs were directly coated to the plate and binding of biotinylated FH (FH-bt) in the absence or presence of a 10-fold higher concentration of indicated mAbs was assessed by ELISA as described above."}, "[5]": {"biological_target": "T4, recombinant human FH fragment CCP 15-18 (human, UniProt P08603 868-1104)", "T4 construct": "domain: CCP 15-18", "T4 sequence (looked up)": "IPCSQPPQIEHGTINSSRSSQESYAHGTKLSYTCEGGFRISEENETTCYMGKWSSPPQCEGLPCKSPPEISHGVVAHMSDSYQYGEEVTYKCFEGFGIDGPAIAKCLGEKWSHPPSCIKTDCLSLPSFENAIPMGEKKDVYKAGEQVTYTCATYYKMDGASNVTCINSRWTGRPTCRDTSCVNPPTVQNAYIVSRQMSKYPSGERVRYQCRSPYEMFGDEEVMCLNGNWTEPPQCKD", "assay": "competition ELISA: mAb captured on RM-19 coated plate, FH-bt mixed with 100-fold excess of unlabelled CCP 15-18", "protocol": "as §2"}, "[6]": {"biological_target": "T5, recombinant human FH fragment CCP 15-19 (human, UniProt P08603 868-1165)", "T5 construct": "domain: CCP 15-19", "T5 sequence (looked up)": "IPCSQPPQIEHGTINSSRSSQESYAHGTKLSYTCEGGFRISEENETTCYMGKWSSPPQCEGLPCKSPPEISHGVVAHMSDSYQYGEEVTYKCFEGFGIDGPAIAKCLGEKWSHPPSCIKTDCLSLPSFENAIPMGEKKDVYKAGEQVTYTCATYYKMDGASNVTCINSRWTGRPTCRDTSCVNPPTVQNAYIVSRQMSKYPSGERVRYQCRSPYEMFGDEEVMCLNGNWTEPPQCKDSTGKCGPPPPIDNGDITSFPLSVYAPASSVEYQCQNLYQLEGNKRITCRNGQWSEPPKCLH", "assay": "competition ELISA: mAb captured on RM-19 coated plate, FH-bt mixed with 100-fold excess of unlabelled CCP 15-19", "protocol": "as §2"}, "[7]": {"biological_target": "T2, recombinant human FH fragment CCP 18-20", "assay": "competition ELISA: mAb captured on RM-19 coated plate, FH-bt mixed with 100-fold excess of unlabelled CCP 18-20", "protocol": "as §2"}, "[8]": {"biological_target": "T1, human factor H, full length", "assay": "competition ELISA: mAb captured on RM-19 coated plate, FH-bt mixed with excess unlabelled full length FH; % of FH-bt binding without competitor", "protocol": "as §2"}, "[9]": {"biological_target": "T1, human factor H, full length", "assay": "SPR, mAb captured on a ProtA or ProtG chip, full length FH flowed over, 1:1 binding model", "protocol": "as §1"}}}
{"binder": "B1", "values": [{"measurement": "IC50 (nM), Hemolytic assay", "setting": "[1]", "result": 153, "unit": "nM"}, {"measurement": "IC50 (nM), LPS C3b dep. assay", "setting": "[1]", "result": 38.8, "unit": "nM"}, {"measurement": "Kd", "setting": "[2]", "result": 0.32, "unit": "nM"}, {"measurement": "koff", "setting": "[2]", "result": 0.00027, "unit": "s⁻¹"}, {"measurement": "kon", "setting": "[2]", "result": 833000, "unit": "M⁻¹ s⁻¹"}, {"measurement": "Kd", "setting": "[3]", "result": 29.7, "unit": "nM"}, {"measurement": "koff", "setting": "[3]", "result": 0.000181, "unit": "s⁻¹"}, {"measurement": "kon", "setting": "[3]", "result": 6090, "unit": "M⁻¹ s⁻¹"}, {"measurement": "binding result", "setting": "[4]", "result": "no binding"}]}
{"binder": "B2", "values": [{"measurement": "IC50 (nM), LPS C3b dep. assay", "setting": "[1]", "result": 25, "unit": "nM"}, {"measurement": "binding result", "setting": "[4]", "result": "no binding"}]}
{"binder": "B3", "values": [{"measurement": "binding result", "setting": "[4]", "result": "no binding"}, {"measurement": "binding result", "setting": "[5]", "result": "binds"}, {"measurement": "binding result", "setting": "[6]", "result": "binds"}, {"measurement": "binding result", "setting": "[7]", "result": "binds"}, {"measurement": "binding result", "setting": "[8]", "result": "binds"}]}
{"binder": "B4", "values": [{"measurement": "IC50 (nM), Hemolytic assay", "setting": "[1]", "result": 94, "unit": "nM"}, {"measurement": "IC50 (nM), LPS C3b dep. assay", "setting": "[1]", "result": 38.4, "unit": "nM"}, {"measurement": "Kd", "setting": "[2]", "result": 0.00544, "unit": "nM"}, {"measurement": "koff", "setting": "[2]", "result": "1.27e-05", "unit": "s⁻¹"}, {"measurement": "kon", "setting": "[2]", "result": "2.39e+06", "unit": "M⁻¹ s⁻¹"}, {"measurement": "Kd", "setting": "[3]", "result": 5.8, "unit": "nM"}, {"measurement": "koff", "setting": "[3]", "result": "9.1e-05", "unit": "s⁻¹"}, {"measurement": "kon", "setting": "[3]", "result": 15800, "unit": "M⁻¹ s⁻¹"}, {"measurement": "Kd", "setting": "[9]", "result": 5.77, "unit": "nM"}, {"measurement": "binding result", "setting": "[4]", "result": "no binding"}]}
